Data reported in US20230159643A1 (H LUNDBECK A S, published 2023).

What was measured:
[1] = molecular target: T1, Sortilin SORTECDBAP_tetra (tetraodon); experiment: BLI Octet 384RED, antibody on Protein A sensor, Sortilin construct in solution
T1 construct: Fully tetraodon Sortilin ECD with BAP tag; also called tetraodon Sortilin
T1 chain: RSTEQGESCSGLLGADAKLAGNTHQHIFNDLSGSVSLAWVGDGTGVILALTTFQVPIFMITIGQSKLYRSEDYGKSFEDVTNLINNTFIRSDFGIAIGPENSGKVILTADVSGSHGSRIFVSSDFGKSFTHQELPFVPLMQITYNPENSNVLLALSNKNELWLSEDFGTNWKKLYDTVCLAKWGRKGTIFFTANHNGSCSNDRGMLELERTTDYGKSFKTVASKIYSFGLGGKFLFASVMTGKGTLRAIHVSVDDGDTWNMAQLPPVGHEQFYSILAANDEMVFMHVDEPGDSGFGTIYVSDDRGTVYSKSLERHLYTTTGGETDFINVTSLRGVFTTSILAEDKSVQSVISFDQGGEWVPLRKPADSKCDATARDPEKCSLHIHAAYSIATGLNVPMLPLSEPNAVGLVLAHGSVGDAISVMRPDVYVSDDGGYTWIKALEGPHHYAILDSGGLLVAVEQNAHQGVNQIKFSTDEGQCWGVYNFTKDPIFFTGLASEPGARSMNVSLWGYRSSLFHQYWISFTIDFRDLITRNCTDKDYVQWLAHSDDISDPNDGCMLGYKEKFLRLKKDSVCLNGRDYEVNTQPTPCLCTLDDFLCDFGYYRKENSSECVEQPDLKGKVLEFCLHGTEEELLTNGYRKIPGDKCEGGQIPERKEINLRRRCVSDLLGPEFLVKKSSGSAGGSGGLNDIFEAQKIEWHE
Experimental: (§1) Binding kinetics of anti-Sortilin HuMab antibodies to Sortilin were determined using Octet 384RED (Fortebio, Menlo Park, USA). HuMab solutions of 2 μg/ml were made by dilution in sample diluent (ForteBio, art. No. 18-5028). Prot A sensors (ForteBio, art. no. 18-0004) were prewetted with kinetics buffer (1:10 sample diluent in PBS) for at least 600 seconds. Subsequently sensors were immobilized with HuMab solution for 600 seconds. A baseline response was obtained by dipping in kinetics buffer for 120 seconds. Association of SORTECD constructs was performed during a 1000 seconds incubation. This was followed by dissociation in kinetics buffer for 100 seconds. After dissociation, sensors were regenerated (10 mM Glycine pH 1.0) and neutralized (kinetics buffer) 3 times for 5 seconds. […] A molecular weight of 76.8 kDA was used for SORTECDHis. Data was fitted with ForteBio Analysis 6.4 software, using a global full fit.

[2] = molecular target: T2, Sortilin SORTECDBAP_hB06-10 (human/tetraodon chimera); experiment: as above
T2 construct: Shuffle construct
T2 chain: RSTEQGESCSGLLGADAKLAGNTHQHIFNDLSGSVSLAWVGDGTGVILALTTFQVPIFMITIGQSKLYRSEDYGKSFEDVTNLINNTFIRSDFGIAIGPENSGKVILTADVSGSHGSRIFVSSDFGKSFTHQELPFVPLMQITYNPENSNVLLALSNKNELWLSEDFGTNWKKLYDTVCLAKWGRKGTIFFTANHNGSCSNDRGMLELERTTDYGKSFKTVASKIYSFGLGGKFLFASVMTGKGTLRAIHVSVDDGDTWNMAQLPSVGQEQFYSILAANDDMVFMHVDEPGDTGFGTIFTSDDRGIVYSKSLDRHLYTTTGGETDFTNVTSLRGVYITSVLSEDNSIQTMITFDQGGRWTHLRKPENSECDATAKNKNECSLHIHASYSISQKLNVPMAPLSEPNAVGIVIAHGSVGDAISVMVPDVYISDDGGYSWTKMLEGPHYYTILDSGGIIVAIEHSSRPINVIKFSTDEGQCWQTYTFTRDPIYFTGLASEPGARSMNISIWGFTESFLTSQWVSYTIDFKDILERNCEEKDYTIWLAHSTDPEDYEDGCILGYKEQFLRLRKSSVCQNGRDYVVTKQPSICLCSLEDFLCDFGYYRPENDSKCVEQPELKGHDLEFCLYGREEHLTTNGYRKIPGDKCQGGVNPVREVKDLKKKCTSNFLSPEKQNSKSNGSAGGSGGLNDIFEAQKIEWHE
Experimental: as §1

B1: 1320 (antibody, V domains shown)
VH: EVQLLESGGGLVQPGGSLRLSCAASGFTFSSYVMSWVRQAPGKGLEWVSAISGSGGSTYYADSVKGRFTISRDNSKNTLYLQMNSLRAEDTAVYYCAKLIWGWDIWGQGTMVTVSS
VL: EIVLTQSPATLSLSPGERATLSCRASQSVSSYLAWYQQRPGQAPRLLIYDASNRATGIPARFSGSGSGTDFTLSISSLEPEDFAVYYCQQRTNWSITFGQGTRLEIK
notes: also called IgG1-6003-1320; Antibody 1320
binding result [1]: no binding (tested: 10 µg/ml construct) | EC50 [2]: 0.0554 µg/mL
